Here are results for 18 molecules from US20240002477A1 (UNIVERSITY OF CHICAGO, published 2024).

B1: S144-1406 (antibody, V domains shown)
VH: QVQLVQSGAEVKKPGASVKVSCKASGYTFTTYAMHWVRQAPGQRLEWMGWINAGNGNTKYSQNFQGRVTITRDTSASTAYMELSSLRSEDTAVYYCASLVGGDSSSWYDYMDVWGKGTTVTVSS
VL: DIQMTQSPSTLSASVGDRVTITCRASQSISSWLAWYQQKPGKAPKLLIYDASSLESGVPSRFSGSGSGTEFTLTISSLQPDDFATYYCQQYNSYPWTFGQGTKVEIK
B2: S144-741 (antibody, V domains shown)
VH: QVHLVQSGAEVKKPGASVKVSCKASGYTFTGYYMNWVRQAPGQGLEWMGRINPNSGGTNYAQKFQGRVTMTRDTSISTAYMELSRLRSDDAAVYYCARAERYSSSWYNLYYWGQGTLVTVSS
VL: not shown
B3: S144-843 (antibody, V domains shown)
VH: QVQLVESGGGVVQPGGSVRLSCAASGFDFTNNGMYWVRQAPGKGLEWVAFIRYDGNKQDYADSVKGRFTISRDNSKNTLYLQMSSLRPEDTAVYYCAKGVYTENYGWGQGTLVTVSS
VL: EIVLTQSPGTLSLSPGERATLSCRASQTVTSRYLAWYQQKPGQAPRLLIYGASTRATGIPDRFSGSGSGTDFTLTISRLEPEDFAVYYCQQYGNSPPYTFGQGTKLEIK
B4: S144-175 (antibody, V domains shown)
VH: QVQLVQSGAEVKKPGASVKVSCKASGYTFTGYYMHWVRQAPGQGLEWMGRINPNSGGTNFAQRFQGRVSMTRDTSISTAYMELSSLRSDDTAVYYCARGAKFEHLPFDIWGQGTMVTVSS
VL: QSMLTQPPSASGTPGQRVTISCSGSSSNIGSNYVYWYQQLPGTAPKLLIYRNNQRPSGVPDRFSGSKSGTSASLAISGLRSEDEADYYCAAWDDRRWVFGGGTKLTVL
B5: S144-208 (antibody, V domains shown)
VH: not shown
VL: QSALTQPRSVSGSPGQSVTISCTGTSSDVGGYKYVSWYQQHPGKAPKLMIYDVSKRPSGVPDRFSGSKSGNTASLTISGLQAEDEGDYYCCSYAGTYSLVFGGGTKVTV
B6: S144-588 (antibody, V domains shown)
VH: QLQLQESGPGLVKPSETLSLTCTVSGGSISSSSYYWGWIRQPPGKGLEWIGSIYYSGSTYYNPSLKSRFTISVDTSKNQFSLKLSSVTAADTAVYYCAAYQRKLGYCRGNSCFSCFDPWGQGTLVTVSS
VL: not shown
B7: S144-1079 (antibody, V domains shown)
VH: QVQLVQSGAEVKKPGSSVKVSCKASGDTFGSYSITWVRQAPGQGLEWMGRIIPVLGIANYAQKFQGRVTITADKSTSTAYMELSSLRSEDTAVYYCAGGGCSGGNCYSWYNWFDPWGQGSLVTVSS
VL: EIVLTQSPGTLSLSPGERATLSCRASQSVSSNYLAWYQQKPGQAPRLLIYGASSRATGIPERFSGSGSGTDFTLTISRLEPEDFAVYYCQQYGRSPYTFGQGTKLEIK
B8: S144-67 (antibody, V domains shown)
VH: EVQLVQSGAEVKKPGESLKISCKGSGYSFTTYWIAWVRQMPGKGLEWVGIIYPDDSDTRYSPSFQGQVTISADKSIGTAYLQWSSLKASDTAMYYCARGQYYDFWSGAGGVDVWGQGTTVTVSS
VL: QSVLTQPPSVSGAPGQRVTISCTGSRSNIGAGYDVQWYQQVPGTAPKLLISGNSNRPSGVPDRFSGSKSGTSASLAITGLQAEDEADYYCQSYDSSLSGLRVFGGGTKLTVL
B9: S144-69 (antibody, V domains shown)
VH: EVQLVQSGAEVKKPGESLKISCKGSGYSFTSYWIGWVRQMPGKGLEWMGIIYPGDSDTRYSPSFQGQVTISADKSITTAYLQWSSLKASDTAMYYCARTQTTNWFDSWGQGTLVTVSS
VL: DIQMTQSPSTLSVSVGDRVTITCRASQSVSSWLAWYQQKPGKAPKLLIYDASSLESGVPSRFSGSGSGTEFTLTISSLQPDDFATYYCQQYNSFYTFGQGTKLEIK
B10: S144-509 (antibody, V domains shown)
VH: EVQLVQSGAEVKKPGESLKISCKGSAYTFTTYWIGWVRQMPGKGLEWMGIIYPGDSDTRYSPSFQGQVTISADKSISTAYLQWSSLKASDTAMYYCARLLLVAGPFDYWGQGTLVTVSS
VL: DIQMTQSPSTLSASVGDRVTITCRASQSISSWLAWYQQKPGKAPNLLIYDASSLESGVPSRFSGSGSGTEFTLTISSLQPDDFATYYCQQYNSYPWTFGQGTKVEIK
B11: S144-466 (antibody, V domains shown)
VH: EVQLVQSGAEVKKPGESLKISCKGSGYRFTRYWIGWVRQMPGKGLEWMGIIYLGDSETRYSPSFQGQVTISADNSISTAYLQWSSLKASDTAMYYCARSSNWNYGDYWGQGTLVTVSS
VL: DIQMTQSPSTLSASVGDRVTITCRASQSITSWLAWYQQKSGKAPKLLIYDASSLESGVPSRFSGSGSGTEFTLTISSLQPDDFATYYCQQYNSYPWTFGQGTKVEIK
B12: S144-741 (antibody, V domains shown)
VH: QVHLVQSGAEVKKPGASVKVSCKASGYTFTGYYMNWVRQAPGQGLEWMGRINPNSGGTNYAQKFQGRVTMTRDTSISTAYMELSRLRSDDAAVYYCARAERYSSSWYNLYYWGQGTLVTVSS
VL: not shown
notes: recombinant human IgG1
B13: S144-843 (antibody, V domains shown)
VH: QVQLVESGGGVVQPGGSVRLSCAASGFDFTNNGMYWVRQAPGKGLEWVAFIRYDGNKQDYADSVKGRFTISRDNSKNTLYLQMSSLRPEDTAVYYCAKGVYTENYGWGQGTLVTVSS
VL: EIVLTQSPGTLSLSPGERATLSCRASQTVTSRYLAWYQQKPGQAPRLLIYGASTRATGIPDRFSGSGSGTDFTLTISRLEPEDFAVYYCQQYGNSPPYTFGQGTKLEIK
notes: recombinant human IgG1
B14: S564-287 (antibody, V domains shown)
VH: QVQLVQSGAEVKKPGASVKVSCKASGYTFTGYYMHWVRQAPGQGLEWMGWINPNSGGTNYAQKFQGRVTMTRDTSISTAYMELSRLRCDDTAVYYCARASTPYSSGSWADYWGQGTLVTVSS
VL: QSALTQPASVSGSPGQSITISCTGTSSDVGGYNYVSWYQQHPGKAPKLMIYDVSNRPSGVSNRFSGSKSGNTASLTISGLQAEDEADYYCSSYASSSTWVFGGGTKLTVL
notes: recombinant human IgG1
B15: S144-1299 (antibody, V domains shown)
VH: QVQLQESGPGLVKPSETLSLTCTVSGGSISSYYWSWIRQPPGKGLEWIGYINYRGITNYNPSLKSRVTISVDMSKNQFSLKLSSVTAADTAVYSCARLAVASRGTVDYWGQGTLVTVSS
VL: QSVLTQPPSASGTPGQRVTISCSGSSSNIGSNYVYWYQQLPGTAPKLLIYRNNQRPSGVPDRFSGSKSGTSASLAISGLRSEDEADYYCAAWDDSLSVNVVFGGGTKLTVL
notes: recombinant human IgG1
B16: S144-175 (antibody, V domains shown)
VH: QVQLVQSGAEVKKPGASVKVSCKASGYTFTGYYMHWVRQAPGQGLEWMGRINPNSGGTNFAQRFQGRVSMTRDTSISTAYMELSSLRSDDTAVYYCARGAKFEHLPFDIWGQGTMVTVSS
VL: QSMLTQPPSASGTPGQRVTISCSGSSSNIGSNYVYWYQQLPGTAPKLLIYRNNQRPSGVPDRFSGSKSGTSASLAISGLRSEDEADYYCAAWDDRRWVFGGGTKLTVL
notes: recombinant human IgG1
B17: S144-208 (antibody, V domains shown)
VH: not shown
VL: QSALTQPRSVSGSPGQSVTISCTGTSSDVGGYKYVSWYQQHPGKAPKLMIYDVSKRPSGVPDRFSGSKSGNTASLTISGLQAEDEGDYYCCSYAGTYSLVFGGGTKVTV
notes: recombinant human IgG1
B18: S144-588 (antibody, V domains shown)
VH: QLQLQESGPGLVKPSETLSLTCTVSGGSISSSSYYWGWIRQPPGKGLEWIGSIYYSGSTYYNPSLKSRFTISVDTSKNQFSLKLSSVTAADTAVYYCAAYQRKLGYCRGNSCFSCFDPWGQGTLVTVSS
VL: not shown
notes: recombinant human IgG1

For one assay, the target named is SARS-CoV-2 spike receptor binding domain (SARS-CoV-2, UniProt P0DTC2 319-541).
Experiment: not given
Turning to B1, the binding result is “binds”.

In the next assay the target is T1, SARS-CoV-2 open reading frame 8 protein (SARS-CoV-2, UniProt P0DTC8 16-121).
T1 construct: domain: Ig-like domain; also called ORF8
T1 sequence (P0DTC8 16-121, tags left off): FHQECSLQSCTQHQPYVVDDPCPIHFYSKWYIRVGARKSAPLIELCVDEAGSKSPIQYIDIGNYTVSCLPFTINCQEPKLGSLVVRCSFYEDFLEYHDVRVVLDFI
Experiment: not given
With B2, the binding result is “binds”.

Consider B3, for which the binding result is given as “binds”.

Take B4: the binding result was “binds”.

Turning to B5, the binding result is reported as “binds”.

On to B6, for which the binding result is “binds”.

For another assay, the target named is SARS-CoV-2 spike receptor binding domain (SARS-CoV-2, UniProt P0DTC2 319-541).
Experiment: not given
This is another data set of the same source.
Consider B7, for which the binding result is “binds”.

Regarding B8, the binding result is reported as “binds”.

For B9, the binding result was “binds”.

Consider B10, for which the binding result is listed as “binds”.

Turning to B11, the binding result is “binds”.

In the next assay the target is T2, SARS-CoV-2 ORF8 protein (SARS-CoV-2, UniProt P0DTC8 16-121).
T2 construct: domain: Ig-like domains; also called open reading frame 8
T2 sequence (P0DTC8 16-121, tags left off): as above
The assay can be described thus: mAb table, Specificity column (recombinant IgG1; ELISA). (In an ELISA, binding on a coated surface is turned into a signal by an enzyme label.)
On to B12, for which the binding result is reported as “binds”.

Consider B13, for which the binding result was “binds”.

Consider B14, for which the binding result is listed as “binds”.

For B15, the binding result is recorded as “binds”.

For B16, the binding result is “binds”.

In the case of B17, the binding result is given as “binds”.

Regarding B18, the binding result is given as “binds”.
